The source of these data is PMC6746995, “Nanomechanics of tip-link cadherins” (Scientific Reports, 2019).

This series concerns the molecule itself. Briefly: AFM imaging + single-molecule force spectroscopy (AFM-SMFS); purified ectodomains in 50 mM TrisHCl/150 mM NaCl/1 mM CaCl2 pH 7.5; imaging on freshly cleaved mica, tapping mode in liquid; SMFS on NTA-Ni2+ coverslips through the His tags, differing persistence length across a trace taken as two cadherins stretched in parallel.

B1: His-tagged full murine PCDH15 ectodomain (domain or fragment)
chain: not shown
notes: protocadherin 15 (PCDH15), murine, full ectodomain (11 EC domains), UniProtKB Q99PJ1; also called protocadherin 15; full-length PCDH15 ectodomain; not shown: His tag, C-terminal, kept
For the protein B1, the binding result is listed as “binds”.
